Data published in patent US20230416330A1, “Optimized GIP Peptide Analogues” (Antag Therapeutics ApS, priority 2019, published 2023).
Non-standard residues stand in square brackets, D forms with d. No end group written: not given here. *: point of attachment. C16 diacid = O=C(O)CCCCCCCCCCCCCCC(=O)*; Nle = CCCC[C@H](N)C(=O)O; Aib = CC(C)(N)C(=O)O

T1: human GIP receptor (human, UniProt P48546 22-466)
T1 sequence (looked up): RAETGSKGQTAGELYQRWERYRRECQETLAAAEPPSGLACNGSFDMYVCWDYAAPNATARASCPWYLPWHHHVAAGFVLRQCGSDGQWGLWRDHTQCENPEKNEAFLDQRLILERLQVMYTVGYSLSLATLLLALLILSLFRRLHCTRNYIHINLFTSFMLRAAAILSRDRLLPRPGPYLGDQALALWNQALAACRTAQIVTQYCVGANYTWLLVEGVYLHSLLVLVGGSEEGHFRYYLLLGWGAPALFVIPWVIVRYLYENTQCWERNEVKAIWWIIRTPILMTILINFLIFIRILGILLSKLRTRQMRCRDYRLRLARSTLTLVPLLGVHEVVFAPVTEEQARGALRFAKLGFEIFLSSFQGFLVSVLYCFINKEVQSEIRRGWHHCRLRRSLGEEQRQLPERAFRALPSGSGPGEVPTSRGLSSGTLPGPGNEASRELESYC

B1: AT668 (peptide)
peptide: EGTFISDYSIALDKIK(C16 diacid)QQDFVEWLLAQKPSSGAPPPS-OH
modifications: N-terminus assumed
SMILES: CC[C@H](C)[C@H](NC(=O)[C@H](CO)NC(=O)[C@H](Cc1ccc(O)cc1)NC(=O)[C@H](CC(=O)O)NC(=O)[C@H](CO)NC(=O)[C@@H](NC(=O)[C@H](Cc1ccccc1)NC(=O)[C@@H](NC(=O)CNC(=O)[C@@H](N)CCC(=O)O)[C@@H](C)O)[C@@H](C)CC)C(=O)N[C@@H](C)C(=O)N[C@@H](CC(C)C)C(=O)N[C@@H](CC(=O)O)C(=O)N[C@@H](CCCCN)C(=O)N[C@H](C(=O)N[C@@H](CCCCNC(=O)CCCCCCCCCCCCCCC(=O)O)C(=O)N[C@@H](CCC(N)=O)C(=O)N[C@@H](CCC(N)=O)C(=O)N[C@@H](CC(=O)O)C(=O)N[C@@H](Cc1ccccc1)C(=O)N[C@H](C(=O)N[C@@H](CCC(=O)O)C(=O)N[C@@H](Cc1c[nH]c2ccccc12)C(=O)N[C@@H](CC(C)C)C(=O)N[C@@H](CC(C)C)C(=O)N[C@@H](C)C(=O)N[C@@H](CCC(N)=O)C(=O)N[C@@H](CCCCN)C(=O)N1CCC[C@H]1C(=O)N[C@@H](CO)C(=O)N[C@@H](CO)C(=O)NCC(=O)N[C@@H](C)C(=O)N1CCC[C@H]1C(=O)N1CCC[C@H]1C(=O)N1CCC[C@H]1C(=O)N[C@@H](CO)C(=O)O)C(C)C)[C@@H](C)CC
B2: AT666 (peptide)
peptide: EGTFISDYSI[Aib]LDKIK(C16 diacid)QQDFVEWLLAQKPSSGAPPPS-OH
B3: AT623 (peptide)
peptide: EGTFISDYSIAMDKIK(C16 diacid)QQDFVEWLLAQAPSSGAPPPS-OH
modifications: N-terminus assumed
SMILES: CC[C@H](C)[C@H](NC(=O)[C@H](CO)NC(=O)[C@H](Cc1ccc(O)cc1)NC(=O)[C@H](CC(=O)O)NC(=O)[C@H](CO)NC(=O)[C@@H](NC(=O)[C@H](Cc1ccccc1)NC(=O)[C@@H](NC(=O)CNC(=O)[C@@H](N)CCC(=O)O)[C@@H](C)O)[C@@H](C)CC)C(=O)N[C@@H](C)C(=O)N[C@@H](CCSC)C(=O)N[C@@H](CC(=O)O)C(=O)N[C@@H](CCCCN)C(=O)N[C@H](C(=O)N[C@@H](CCCCNC(=O)CCCCCCCCCCCCCCC(=O)O)C(=O)N[C@@H](CCC(N)=O)C(=O)N[C@@H](CCC(N)=O)C(=O)N[C@@H](CC(=O)O)C(=O)N[C@@H](Cc1ccccc1)C(=O)N[C@H](C(=O)N[C@@H](CCC(=O)O)C(=O)N[C@@H](Cc1c[nH]c2ccccc12)C(=O)N[C@@H](CC(C)C)C(=O)N[C@@H](CC(C)C)C(=O)N[C@@H](C)C(=O)N[C@@H](CCC(N)=O)C(=O)N[C@@H](C)C(=O)N1CCC[C@H]1C(=O)N[C@@H](CO)C(=O)N[C@@H](CO)C(=O)NCC(=O)N[C@@H](C)C(=O)N1CCC[C@H]1C(=O)N1CCC[C@H]1C(=O)N1CCC[C@H]1C(=O)N[C@@H](CO)C(=O)O)C(C)C)[C@@H](C)CC
B4: AT667 (peptide)
peptide: EGTFISDYSI[Aib][Nle]DKIK(C16 diacid)QQDFVEWLLAQKPSSGAPPPS-OH
B5: AT614 (peptide)
peptide: EGTFISEYSIAMEKIK(C16 diacid)QQEFVEWLLAQKPSSGAPPPS-OH
modifications: N-terminus assumed
SMILES: CC[C@H](C)[C@H](NC(=O)[C@H](CO)NC(=O)[C@H](Cc1ccc(O)cc1)NC(=O)[C@H](CCC(=O)O)NC(=O)[C@H](CO)NC(=O)[C@@H](NC(=O)[C@H](Cc1ccccc1)NC(=O)[C@@H](NC(=O)CNC(=O)[C@@H](N)CCC(=O)O)[C@@H](C)O)[C@@H](C)CC)C(=O)N[C@@H](C)C(=O)N[C@@H](CCSC)C(=O)N[C@@H](CCC(=O)O)C(=O)N[C@@H](CCCCN)C(=O)N[C@H](C(=O)N[C@@H](CCCCNC(=O)CCCCCCCCCCCCCCC(=O)O)C(=O)N[C@@H](CCC(N)=O)C(=O)N[C@@H](CCC(N)=O)C(=O)N[C@@H](CCC(=O)O)C(=O)N[C@@H](Cc1ccccc1)C(=O)N[C@H](C(=O)N[C@@H](CCC(=O)O)C(=O)N[C@@H](Cc1c[nH]c2ccccc12)C(=O)N[C@@H](CC(C)C)C(=O)N[C@@H](CC(C)C)C(=O)N[C@@H](C)C(=O)N[C@@H](CCC(N)=O)C(=O)N[C@@H](CCCCN)C(=O)N1CCC[C@H]1C(=O)N[C@@H](CO)C(=O)N[C@@H](CO)C(=O)NCC(=O)N[C@@H](C)C(=O)N1CCC[C@H]1C(=O)N1CCC[C@H]1C(=O)N1CCC[C@H]1C(=O)N[C@@H](CO)C(=O)O)C(C)C)[C@@H](C)CC
B6: AT616 (peptide)
peptide: EGTFISEYSI[Aib]MEKIK(C16 diacid)QQDFVEWLLAQKPSSGAPPPS-OH
modifications: N-terminus assumed
SMILES: CC[C@H](C)[C@H](NC(=O)[C@H](CCCCN)NC(=O)[C@H](CCC(=O)O)NC(=O)[C@H](CCSC)NC(=O)C(C)(C)NC(=O)[C@@H](NC(=O)[C@H](CO)NC(=O)[C@H](Cc1ccc(O)cc1)NC(=O)[C@H](CCC(=O)O)NC(=O)[C@H](CO)NC(=O)[C@@H](NC(=O)[C@H](Cc1ccccc1)NC(=O)[C@@H](NC(=O)CNC(=O)[C@@H](N)CCC(=O)O)[C@@H](C)O)[C@@H](C)CC)[C@@H](C)CC)C(=O)N[C@@H](CCCCNC(=O)CCCCCCCCCCCCCCC(=O)O)C(=O)N[C@@H](CCC(N)=O)C(=O)N[C@@H](CCC(N)=O)C(=O)N[C@@H](CC(=O)O)C(=O)N[C@@H](Cc1ccccc1)C(=O)N[C@H](C(=O)N[C@@H](CCC(=O)O)C(=O)N[C@@H](Cc1c[nH]c2ccccc12)C(=O)N[C@@H](CC(C)C)C(=O)N[C@@H](CC(C)C)C(=O)N[C@@H](C)C(=O)N[C@@H](CCC(N)=O)C(=O)N[C@@H](CCCCN)C(=O)N1CCC[C@H]1C(=O)N[C@@H](CO)C(=O)N[C@@H](CO)C(=O)NCC(=O)N[C@@H](C)C(=O)N1CCC[C@H]1C(=O)N1CCC[C@H]1C(=O)N1CCC[C@H]1C(=O)N[C@@H](CO)C(=O)O)C(C)C
B7: AT665 (peptide)
peptide: EGTFISDYSI[Aib]MDKIK(C16 diacid)QQDFVEWLLAQKPSSGAPPPS-OH
B8: AT617 (peptide)
peptide: EGTFISDYSIAMDKIK(C16 diacid)QQDFVEWLLAQKPSSGAPPPS-OH
modifications: N-terminus assumed
SMILES: CC[C@H](C)[C@H](NC(=O)[C@H](CO)NC(=O)[C@H](Cc1ccc(O)cc1)NC(=O)[C@H](CC(=O)O)NC(=O)[C@H](CO)NC(=O)[C@@H](NC(=O)[C@H](Cc1ccccc1)NC(=O)[C@@H](NC(=O)CNC(=O)[C@@H](N)CCC(=O)O)[C@@H](C)O)[C@@H](C)CC)C(=O)N[C@@H](C)C(=O)N[C@@H](CCSC)C(=O)N[C@@H](CC(=O)O)C(=O)N[C@@H](CCCCN)C(=O)N[C@H](C(=O)N[C@@H](CCCCNC(=O)CCCCCCCCCCCCCCC(=O)O)C(=O)N[C@@H](CCC(N)=O)C(=O)N[C@@H](CCC(N)=O)C(=O)N[C@@H](CC(=O)O)C(=O)N[C@@H](Cc1ccccc1)C(=O)N[C@H](C(=O)N[C@@H](CCC(=O)O)C(=O)N[C@@H](Cc1c[nH]c2ccccc12)C(=O)N[C@@H](CC(C)C)C(=O)N[C@@H](CC(C)C)C(=O)N[C@@H](C)C(=O)N[C@@H](CCC(N)=O)C(=O)N[C@@H](CCCCN)C(=O)N1CCC[C@H]1C(=O)N[C@@H](CO)C(=O)N[C@@H](CO)C(=O)NCC(=O)N[C@@H](C)C(=O)N1CCC[C@H]1C(=O)N1CCC[C@H]1C(=O)N1CCC[C@H]1C(=O)N[C@@H](CO)C(=O)O)C(C)C)[C@@H](C)CC

Biological target: T1, human GIP receptor
Assay: cell-based or functional assay

Binder	cAMP antagonism % inhib (CisBio assay)	cAMP antagonism nM (IC50, CisBio assay)	cAMP antagonism pIC50 (CisBio assay)
B1	92%	0.944 nM	9
B2	89%	0.266 nM	9.6
B3	98%	3.16 nM	8.5
B4	86%	0.736 nM	9.1
B5	100%	1.08 nM	9
B6	100%	0.473 nM	9.3
B7	88%	0.15 nM	9.8
B8	91%	0.794 nM	9.1
